In US20120090043A1, “TARGETS FOR RETROVIRUS ASSOCIATED DISEASES” (priority 2009, published 2012):

Assays:
Assay in all cases: cell-based or functional assay
HOXA3 (human) = HOXA3 (human) (UniProt O43365)
HOXD3 (human) = HOXD3 (human) (UniProt P31249)
LOC541468 (human) = LOC541468 (human) (UniProt Q96LR2)
SF3A3 (human) = SF3A3 (human) (UniProt Q12874)
MIZF (human) = MIZF (human) (UniProt Q9BQA5)
PDE9A (human) = PDE9A (human) (UniProt O76083)
LNX2 (human) = LNX2 (human) (UniProt Q8N448)
NIF3L1 (human) = NIF3L1 (human) (UniProt Q9GZT8)
FANCG (human) = FANCG (human) (UniProt O15287)
MYEF2 (human) = MYEF2 (human) (UniProt Q9P2K5)
MRPS6 (human) = MRPS6 (human) (UniProt P82932)
CCDC24 (human) = CCDC24 (human) (UniProt Q8N4L8)
ZNF614 (human) = ZNF614 (human) (UniProt Q8N883)
FLJ22471 (human) = FLJ22471 (human) (UniProt Q53HC0)
KIAA1949 (human) = KIAA1949 (human) (UniProt Q6NYC8)
HOXB9 (human) = HOXB9 (human) (UniProt P17482)
C20orf141 (human) = C20orf141 (human) (UniProt Q9NUB4)
NEFL (human) = NEFL (human) (UniProt P07196)
SPG21 (human) = SPG21 (human) (UniProt Q9NZD8)
FATE1 (human) = FATE1 (human) (UniProt Q969F0)
LENG1 (human) = LENG1 (human) (UniProt Q96BZ8)
TTC23 (human) = TTC23 (human) (UniProt Q5W5X9)
DGCR6L (human) = DGCR6L (human) (UniProt Q9BY27)
KRT8 (human) = KRT8 (human) (UniProt P05787)
DHRS10 (human) = DHRS10 (human) (UniProt Q9BPX1)
KIF9 (human) = KIF9 (human) (UniProt Q9HAQ2)
NOS3 (human) = NOS3 (human) (UniProt P29474)

Work on HIV-1 Tat yielded an HIV LTR transactiv. (fold change) (HOXA3 (human)) of 0.29 fold change, an HIV LTR transactiv. (fold change) (HOXD3 (human)) of 7.3 fold change and an HIV LTR transactiv. (fold change) (LOC541468 (human)) of 2.38 fold change. For the same substance, the HIV LTR transactiv. (fold change) (SF3A3 (human)) was 0.49 fold change, the HIV LTR transactiv. (fold change) (MIZF (human)) was 2.5 fold change and the HIV LTR transactiv. (fold change) (PDE9A (human)) was 0.28 fold change. It also gave an HIV LTR transactiv. (fold change) (LNX2 (human)) of 0.26 fold change.
Substance HTLV-1 Tax p40 has an HTLV LTR transactiv. (fold change) (NIF3L1 (human)) of 0.39 fold change, an HTLV LTR transactiv. (fold change) (FANCG (human)) of 3.48 fold change and an HTLV LTR transactiv. (fold change) (MYEF2 (human)) of 2.53 fold change. For the same substance, the HTLV LTR transactiv. (fold change) (MRPS6 (human)) was 0.38 fold change, the HTLV LTR transactiv. (fold change) (CCDC24 (human)) was 2.88 fold change and the HTLV LTR transactiv. (fold change) (ZNF614 (human)) was 5.24 fold change. It also gave an HTLV LTR transactiv. (fold change) (FLJ22471 (human)) of 2.25 fold change, an HTLV LTR transactiv. (fold change) (KIAA1949 (human)) of 0.35 fold change and an HTLV LTR transactiv. (fold change) (HOXB9 (human)) of 3.69 fold change. The HTLV LTR transactiv. (fold change) (C20orf141 (human)) was 2.8 fold change, the HTLV LTR transactiv. (fold change) (NEFL (human)) was 0.45 fold change and the HTLV LTR transactiv. (fold change) (SPG21 (human)) was 0.21 fold change. It also gave an HTLV LTR transactiv. (fold change) (FATE1 (human)) of 0.49 fold change, an HTLV LTR transactiv. (fold change) (LENG1 (human)) of 0.34 fold change and an HTLV LTR transactiv. (fold change) (TTC23 (human)) of 0.21 fold change. The HTLV LTR transactiv. (fold change) (DGCR6L (human)) was 0.24 fold change, the HTLV LTR transactiv. (fold change) (KRT8 (human)) was 0.24 fold change and the HTLV LTR transactiv. (fold change) (DHRS10 (human)) was 0.41 fold change. It also gave an HTLV LTR transactiv. (fold change) (KIF9 (human)) of 0.37 fold change, an HTLV LTR transactiv. (fold change) (LNX2 (human)) of 0.28 fold change and an HTLV LTR transactiv. (fold change) (NOS3 (human)) of 0.45 fold change.
